Data on one protein can be found in patent US20180326022.

The target in series [1] is detyrosinated microtubules (human cardiomyocytes).
The target of series [2] is detyrosinated microtubules (rat cardiomyocytes).

B1: human tubulin tyrosine ligase (TTL) (protein)
chain: MYTFVVRDENSSVYAEVSRLLLATGHWKRLRRDNPRFNLMLGERNRLPFGRLGHEPGLVQLVNYYRGADKLCRKASLVKLIKTSPELAESCTWFPESYVIYPTNLKTPVAPAQNGIQPPISNSRTDEREFFLASYNRKKEDGEGNVWIAKSSAGAKGEGILISSEASELLDFIDNQGQVHVIQKYLEHPLLLEPGHRKFDIRSWVLVDHQYNIYLYREGVLRTASEPYHVDNFQDKTCHLTNHCIQKEYSKNYGKYEEGNEMFFKEFNQYLTSALNITLESSILLQIKHIIRNCLLSVEPAISTKHLPYQSFQLFGFDFMVDEELKVWLIEVNGAPACAQKLYAELCQGIVDIAISSVFPPPDVEQPQTQPAAFIKL
As to B1, the “density of dTyr-MTs and dTyr-MT/total MT ratio (immunofluorescence) after AdV-TTL for 48 hrs” value in series [1] was “decreased the density of dTyr-MTs and the proportion of total MTs that were detyrosinated”. Besides, in series [2], the “amount of polymerized, detyrosinated MTs (immunofluorescence and immunoblot) after AdV-TTL” value is listed as 3-4 fold reduction in the amount of polymerized, detyrosinated MTs; the detyr Tubulin, western blotting relative to null, TTL (0.01) (relative to null) amounted to 0.74; the detyr Tubulin, western blotting relative to null, TTL (0.1) (relative to null) amounted to 0.28; the tyr Tubulin, western blotting relative to null, TTL (0.01) (relative to null) was 2.63. The tyr Tubulin, western blotting relative to null, TTL (0.1) (relative to null) in series [2] was found to be 3.32.
